T1: endogenous GLP-1 receptor of a murine insulinoma cell line (murine, UniProt O35659 22-463)
T1 sequence (looked up): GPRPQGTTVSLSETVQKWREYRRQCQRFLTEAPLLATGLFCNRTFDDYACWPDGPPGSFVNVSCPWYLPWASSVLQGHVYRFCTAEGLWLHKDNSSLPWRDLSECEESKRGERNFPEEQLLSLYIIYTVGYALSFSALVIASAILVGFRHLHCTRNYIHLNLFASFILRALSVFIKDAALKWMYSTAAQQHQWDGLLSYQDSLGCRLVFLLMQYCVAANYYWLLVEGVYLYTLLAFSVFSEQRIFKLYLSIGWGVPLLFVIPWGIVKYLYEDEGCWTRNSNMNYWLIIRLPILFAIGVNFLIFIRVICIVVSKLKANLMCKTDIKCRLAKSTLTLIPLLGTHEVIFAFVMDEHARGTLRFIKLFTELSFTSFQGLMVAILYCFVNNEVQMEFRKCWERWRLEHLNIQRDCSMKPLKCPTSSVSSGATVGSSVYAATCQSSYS

B1: Compound 23 (peptide)
peptide: H-H[Aib]QGTFTSDYSKYLESK([γGlu-Palmitoyl])AAHDFVEWLESA-NH2
SMILES: CCCCCCCCCCCCCCCC(=O)N[C@@H](CCC(=O)NCCCC[C@H](NC(=O)[C@H](CO)NC(=O)[C@H](CCC(=O)O)NC(=O)[C@H](CC(C)C)NC(=O)[C@H](Cc1ccc(O)cc1)NC(=O)[C@H](CCCCN)NC(=O)[C@H](CO)NC(=O)[C@H](Cc1ccc(O)cc1)NC(=O)[C@H](CC(=O)O)NC(=O)[C@H](CO)NC(=O)[C@@H](NC(=O)[C@H](Cc1ccccc1)NC(=O)[C@@H](NC(=O)CNC(=O)[C@H](CCC(N)=O)NC(=O)C(C)(C)NC(=O)[C@@H](N)Cc1c[nH]cn1)[C@@H](C)O)[C@@H](C)O)C(=O)N[C@@H](C)C(=O)N[C@@H](C)C(=O)N[C@@H](Cc1c[nH]cn1)C(=O)N[C@@H](CC(=O)O)C(=O)N[C@@H](Cc1ccccc1)C(=O)N[C@H](C(=O)N[C@@H](CCC(=O)O)C(=O)N[C@@H](Cc1c[nH]c2ccccc12)C(=O)N[C@@H](CC(C)C)C(=O)N[C@@H](CCC(=O)O)C(=O)N[C@@H](CO)C(=O)N[C@@H](C)C(N)=O)C(C)C)C(=O)O
B2: Compound 21 (peptide)
peptide: H-H[Aib]QGTFTSDYSKYLESK([γGlu-Palmitoyl])AAEDFIEWLESA-NH2
SMILES: CCCCCCCCCCCCCCCC(=O)N[C@@H](CCC(=O)NCCCC[C@H](NC(=O)[C@H](CO)NC(=O)[C@H](CCC(=O)O)NC(=O)[C@H](CC(C)C)NC(=O)[C@H](Cc1ccc(O)cc1)NC(=O)[C@H](CCCCN)NC(=O)[C@H](CO)NC(=O)[C@H](Cc1ccc(O)cc1)NC(=O)[C@H](CC(=O)O)NC(=O)[C@H](CO)NC(=O)[C@@H](NC(=O)[C@H](Cc1ccccc1)NC(=O)[C@@H](NC(=O)CNC(=O)[C@H](CCC(N)=O)NC(=O)C(C)(C)NC(=O)[C@@H](N)Cc1c[nH]cn1)[C@@H](C)O)[C@@H](C)O)C(=O)N[C@@H](C)C(=O)N[C@@H](C)C(=O)N[C@@H](CCC(=O)O)C(=O)N[C@@H](CC(=O)O)C(=O)N[C@@H](Cc1ccccc1)C(=O)N[C@H](C(=O)N[C@@H](CCC(=O)O)C(=O)N[C@@H](Cc1c[nH]c2ccccc12)C(=O)N[C@@H](CC(C)C)C(=O)N[C@@H](CCC(=O)O)C(=O)N[C@@H](CO)C(=O)N[C@@H](C)C(N)=O)[C@@H](C)CC)C(=O)O
B3: Compound 24 (peptide)
peptide: H-H[Aib]QGTFTSDYSKYLESK([γGlu-Palmitoyl])AAEDFVEWLESA-NH2
SMILES: CCCCCCCCCCCCCCCC(=O)N[C@@H](CCC(=O)NCCCC[C@H](NC(=O)[C@H](CO)NC(=O)[C@H](CCC(=O)O)NC(=O)[C@H](CC(C)C)NC(=O)[C@H](Cc1ccc(O)cc1)NC(=O)[C@H](CCCCN)NC(=O)[C@H](CO)NC(=O)[C@H](Cc1ccc(O)cc1)NC(=O)[C@H](CC(=O)O)NC(=O)[C@H](CO)NC(=O)[C@@H](NC(=O)[C@H](Cc1ccccc1)NC(=O)[C@@H](NC(=O)CNC(=O)[C@H](CCC(N)=O)NC(=O)C(C)(C)NC(=O)[C@@H](N)Cc1c[nH]cn1)[C@@H](C)O)[C@@H](C)O)C(=O)N[C@@H](C)C(=O)N[C@@H](C)C(=O)N[C@@H](CCC(=O)O)C(=O)N[C@@H](CC(=O)O)C(=O)N[C@@H](Cc1ccccc1)C(=O)N[C@H](C(=O)N[C@@H](CCC(=O)O)C(=O)N[C@@H](Cc1c[nH]c2ccccc12)C(=O)N[C@@H](CC(C)C)C(=O)N[C@@H](CCC(=O)O)C(=O)N[C@@H](CO)C(=O)N[C@@H](C)C(N)=O)C(C)C)C(=O)O
B4: Compound 22 (peptide)
peptide: H-HSQGTFTSDYSKYLEEK([γGlu-Palmitoyl])AAKDFIEWLESA-NH2
SMILES: CCCCCCCCCCCCCCCC(=O)N[C@@H](CCC(=O)NCCCC[C@H](NC(=O)[C@H](CCC(=O)O)NC(=O)[C@H](CCC(=O)O)NC(=O)[C@H](CC(C)C)NC(=O)[C@H](Cc1ccc(O)cc1)NC(=O)[C@H](CCCCN)NC(=O)[C@H](CO)NC(=O)[C@H](Cc1ccc(O)cc1)NC(=O)[C@H](CC(=O)O)NC(=O)[C@H](CO)NC(=O)[C@@H](NC(=O)[C@H](Cc1ccccc1)NC(=O)[C@@H](NC(=O)CNC(=O)[C@H](CCC(N)=O)NC(=O)[C@H](CO)NC(=O)[C@@H](N)Cc1c[nH]cn1)[C@@H](C)O)[C@@H](C)O)C(=O)N[C@@H](C)C(=O)N[C@@H](C)C(=O)N[C@@H](CCCCN)C(=O)N[C@@H](CC(=O)O)C(=O)N[C@@H](Cc1ccccc1)C(=O)N[C@H](C(=O)N[C@@H](CCC(=O)O)C(=O)N[C@@H](Cc1c[nH]c2ccccc12)C(=O)N[C@@H](CC(C)C)C(=O)N[C@@H](CCC(=O)O)C(=O)N[C@@H](CO)C(=O)N[C@@H](C)C(N)=O)[C@@H](C)CC)C(=O)O

Numbered stars: 1 amine (or outer) side, 2 acyl side, 3 side chain; on linkers, the order of the positions; unused ones are H or OH. Square brackets hold non-standard residues; d marks the D form. Side chains are listed from the residue outwards. * marks the point of attachment. γGlu = O=C(O)[C@H](CCC(=O)[*:2])N[*:1]; Palmitoyl = CCCCCCCCCCCCCCCC(=O)*; Aib = CC(C)(N)C(=O)O

Chain of endogenous glucagon receptor of primary rat hepatocytes (P30082 27-485): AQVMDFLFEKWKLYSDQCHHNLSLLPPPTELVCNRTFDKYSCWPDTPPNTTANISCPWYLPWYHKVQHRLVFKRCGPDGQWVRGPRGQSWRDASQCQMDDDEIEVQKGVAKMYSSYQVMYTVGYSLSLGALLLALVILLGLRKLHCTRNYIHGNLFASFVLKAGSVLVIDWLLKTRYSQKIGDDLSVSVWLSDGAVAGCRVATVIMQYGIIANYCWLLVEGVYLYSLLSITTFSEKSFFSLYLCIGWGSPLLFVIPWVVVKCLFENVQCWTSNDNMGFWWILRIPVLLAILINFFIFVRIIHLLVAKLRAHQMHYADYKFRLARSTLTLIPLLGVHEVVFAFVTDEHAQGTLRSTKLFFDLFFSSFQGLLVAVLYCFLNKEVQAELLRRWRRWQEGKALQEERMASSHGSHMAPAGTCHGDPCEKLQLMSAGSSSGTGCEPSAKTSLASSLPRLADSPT

The target in the first test is human glucagon receptor (Glucagon-R) (human, UniProt P47871 26-477). Description: cell-based or functional assay.
Chain of human glucagon receptor (Glucagon-R) (P47871 26-477): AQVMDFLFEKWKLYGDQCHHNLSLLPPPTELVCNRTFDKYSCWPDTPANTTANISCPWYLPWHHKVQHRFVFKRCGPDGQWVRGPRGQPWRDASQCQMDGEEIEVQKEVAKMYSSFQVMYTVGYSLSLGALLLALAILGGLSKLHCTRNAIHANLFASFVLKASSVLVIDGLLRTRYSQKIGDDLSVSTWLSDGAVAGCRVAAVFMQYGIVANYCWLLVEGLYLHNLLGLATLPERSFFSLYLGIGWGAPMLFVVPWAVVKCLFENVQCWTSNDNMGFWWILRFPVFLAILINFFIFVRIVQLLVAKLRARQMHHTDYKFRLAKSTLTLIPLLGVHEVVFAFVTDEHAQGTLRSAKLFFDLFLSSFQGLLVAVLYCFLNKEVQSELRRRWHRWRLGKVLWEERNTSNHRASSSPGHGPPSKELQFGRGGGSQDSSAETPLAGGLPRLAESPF
For B1, the “EC50 hGCGR CHO-K1 [nM] (cAMP)” value amounted to 0.25 nM.
With B2, the “EC50 hGCGR CHO-K1 [nM] (cAMP)” value is 1.32 nM.
On to B3, for which the “EC50 hGCGR CHO-K1 [nM] (cAMP)” value amounted to 0.92 nM.
Regarding B4, the “EC50 hGCGR CHO-K1 [nM] (cAMP)” value was 0.1 nM.

The target in another test is human glucagon-like peptide 1 receptor (GLP-1R) (human, UniProt P43220 24-463). Description: cell-based or functional assay.
B1: the “EC50 hGLP-1R CHO-K1 [nM] (cAMP)” value amounted to 0.13 nM and the “Ratio GLP-1/Glucagon (EC50 hGLP-1R / EC50 hGCGR)” value came out at 0.52 ratio.
In the same order, the values of B2 are 0.12 nM and 0.09 ratio.
With B3, the “EC50 hGLP-1R CHO-K1 [nM] (cAMP)” value turned out to be 0.11 nM and the “Ratio GLP-1/Glucagon (EC50 hGLP-1R / EC50 hGCGR)” value turned out to be 0.12 ratio.
As for B4, the “EC50 hGLP-1R CHO-K1 [nM] (cAMP)” value worked out at 0.24 nM and the “Ratio GLP-1/Glucagon (EC50 hGLP-1R / EC50 hGCGR)” value was 2.4 ratio.

The target of the next test is T1, endogenous GLP-1 receptor of a murine …. Description: cell-based or functional assay.
As for B1, the “EC50 GLP-1R (murine insulinoma cells) [nM] (cAMP)” value is 0.31 nM.
The same measure, in the same setting: the same measure for B2: 0.3 nM; for B3: 0.33 nM.
B4: the “EC50 GLP-1R (murine insulinoma cells) [nM] (cAMP)” value is 0.35 nM.

Another test has as its target endogenous glucagon receptor of primary rat hepatocytes (rat, UniProt P30082 27-485). The test is described as follows: cell-based or functional assay.
Regarding B1, the “EC50 GLP-1R Rat hepat. [nM] (inhibition of glycogen synthesis)” value was 1.32 nM.
Turning to B2, the “EC50 GLP-1R Rat hepat. [nM] (inhibition of glycogen synthesis)” value is 3.4 nM.
On the same count and under the same terms, as for B3, the figure is 6.15 nM; as for B4, 0.28 nM.

These data come from US20140080757A1 (ZEALAND PHARMA A S, published 2014).
